Columns and labels:
[1] = target: PERIOD (PER) protein, Drosophila, expressed in S2 cells from hs-per, P07663
[2] = target: phosvitin (Sigma #P-1253)
[3] = target: mouse PERIOD1 (mPER1), in vitro translated, 35S-methionine-labeled, O35973
[4] = target: mouse PERIOD2 (mPER2), in vitro translated, 35S-methionine-labeled, O54943
[5] = target: dephosphorylated α-casein (Sigma #C-8032)

Chain of mouse PERIOD2 (mPER2), in vitro translated, 35S-methionine-labeled, O54943 (O54943 whole entry, looked up): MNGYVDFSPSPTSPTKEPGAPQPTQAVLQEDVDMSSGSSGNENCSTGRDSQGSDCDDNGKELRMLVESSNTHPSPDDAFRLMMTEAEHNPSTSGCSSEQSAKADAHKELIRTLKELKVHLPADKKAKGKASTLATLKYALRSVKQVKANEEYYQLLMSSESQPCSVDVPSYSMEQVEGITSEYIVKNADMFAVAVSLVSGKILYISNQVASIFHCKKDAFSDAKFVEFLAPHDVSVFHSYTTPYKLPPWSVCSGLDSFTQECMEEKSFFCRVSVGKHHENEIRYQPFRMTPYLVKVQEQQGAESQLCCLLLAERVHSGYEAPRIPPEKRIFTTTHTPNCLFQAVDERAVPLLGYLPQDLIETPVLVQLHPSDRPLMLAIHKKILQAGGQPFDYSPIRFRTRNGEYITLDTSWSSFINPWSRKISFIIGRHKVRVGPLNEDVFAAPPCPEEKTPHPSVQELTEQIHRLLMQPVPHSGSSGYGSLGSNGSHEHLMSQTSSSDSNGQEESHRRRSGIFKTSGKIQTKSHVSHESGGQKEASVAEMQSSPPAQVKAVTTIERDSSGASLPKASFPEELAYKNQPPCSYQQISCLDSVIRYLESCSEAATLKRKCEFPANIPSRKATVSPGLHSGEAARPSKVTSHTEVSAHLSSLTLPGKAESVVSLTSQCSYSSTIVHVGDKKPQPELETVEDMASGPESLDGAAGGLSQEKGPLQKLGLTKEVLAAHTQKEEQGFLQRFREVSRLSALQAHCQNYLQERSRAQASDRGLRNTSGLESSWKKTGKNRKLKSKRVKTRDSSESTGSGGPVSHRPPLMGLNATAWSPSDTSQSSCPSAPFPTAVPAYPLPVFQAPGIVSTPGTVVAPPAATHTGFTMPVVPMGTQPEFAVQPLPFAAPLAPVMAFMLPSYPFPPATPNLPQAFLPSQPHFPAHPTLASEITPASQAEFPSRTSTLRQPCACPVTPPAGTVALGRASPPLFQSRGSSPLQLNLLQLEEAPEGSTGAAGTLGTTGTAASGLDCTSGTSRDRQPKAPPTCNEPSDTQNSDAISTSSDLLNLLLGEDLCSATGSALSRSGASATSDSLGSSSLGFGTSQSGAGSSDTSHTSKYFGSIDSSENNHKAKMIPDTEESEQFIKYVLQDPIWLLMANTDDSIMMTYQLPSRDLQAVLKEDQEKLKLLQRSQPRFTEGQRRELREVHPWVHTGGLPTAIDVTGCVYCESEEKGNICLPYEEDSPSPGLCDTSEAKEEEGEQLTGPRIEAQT
Chain of mouse PERIOD1 (mPER1), in vitro translated, 35S-methionine-labeled, O35973 (O35973 whole entry, looked up): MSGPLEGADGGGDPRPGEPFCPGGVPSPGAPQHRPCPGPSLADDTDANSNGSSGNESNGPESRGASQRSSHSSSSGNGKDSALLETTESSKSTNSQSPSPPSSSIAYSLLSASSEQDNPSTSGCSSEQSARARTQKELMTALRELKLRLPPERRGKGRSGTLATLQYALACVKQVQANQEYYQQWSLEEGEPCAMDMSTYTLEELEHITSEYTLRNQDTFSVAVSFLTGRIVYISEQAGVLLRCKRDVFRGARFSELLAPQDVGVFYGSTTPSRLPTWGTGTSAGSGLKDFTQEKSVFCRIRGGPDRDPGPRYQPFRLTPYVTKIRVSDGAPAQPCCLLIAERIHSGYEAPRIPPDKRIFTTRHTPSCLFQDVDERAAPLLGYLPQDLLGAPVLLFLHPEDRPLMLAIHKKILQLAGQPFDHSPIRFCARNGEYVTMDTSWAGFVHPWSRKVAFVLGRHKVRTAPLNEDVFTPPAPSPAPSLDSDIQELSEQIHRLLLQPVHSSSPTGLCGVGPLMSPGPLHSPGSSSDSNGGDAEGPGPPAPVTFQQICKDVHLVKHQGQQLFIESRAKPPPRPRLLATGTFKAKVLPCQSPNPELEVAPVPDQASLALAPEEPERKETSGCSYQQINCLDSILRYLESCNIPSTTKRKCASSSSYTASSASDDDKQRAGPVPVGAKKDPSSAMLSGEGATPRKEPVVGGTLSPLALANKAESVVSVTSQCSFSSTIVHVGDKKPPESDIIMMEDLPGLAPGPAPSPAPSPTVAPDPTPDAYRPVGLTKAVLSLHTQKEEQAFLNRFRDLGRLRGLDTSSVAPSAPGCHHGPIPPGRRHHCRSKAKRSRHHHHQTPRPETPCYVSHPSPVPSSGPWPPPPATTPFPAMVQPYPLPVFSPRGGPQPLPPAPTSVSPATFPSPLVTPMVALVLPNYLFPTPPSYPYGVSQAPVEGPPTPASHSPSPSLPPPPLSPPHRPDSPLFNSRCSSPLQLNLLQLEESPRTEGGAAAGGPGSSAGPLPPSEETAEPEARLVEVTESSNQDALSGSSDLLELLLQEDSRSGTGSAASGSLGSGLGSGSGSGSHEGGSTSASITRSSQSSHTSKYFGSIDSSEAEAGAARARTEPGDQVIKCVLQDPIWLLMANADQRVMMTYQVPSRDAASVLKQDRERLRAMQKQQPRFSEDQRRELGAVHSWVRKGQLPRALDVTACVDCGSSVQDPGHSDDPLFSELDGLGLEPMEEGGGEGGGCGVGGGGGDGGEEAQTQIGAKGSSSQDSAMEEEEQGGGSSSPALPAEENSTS

Protein	phosphorylation of PER in vitro [1]	Km [2]	Vmax [2]	fold reduction in Vmax against wild-type [2]	affinity kinase assay, phosphorylation of bound substrate [3]	affinity kinase assay, phosphorylation of bound substrate [4]	32P signal intensity of phosphorylated substrate, wild-type relative to tau enzyme [2]	32P signal intensity of phosphorylated substrate, wild-type relative to tau enzyme [5]
DOUBLETIME protein (DBT), Drosophila, in vitro translated from dbt cDNA P12, 35S-labeled (protein) MELRVGNKYRLGRKIGSGSFGDIYLGTTINTGEEVAIKLECIRTKHPQLHIESKFYKTMQGGIGIPRIIWCGSEGDYNVMVMELLGPSLEDLFNFCSRRFSLKTVLLLADQMISRIDYIHSRDFIHRDIKPDNFLMGLGKKGNLVYIIDFGLAKKFRDARSLKHIPYRENKNLTGTARYASINTHLGIEQSRRDDLESLGYVLMYFNLGALPWQGLKAANKRQKYERISEKKLSTSIVVLCKGFPSEFVNYLNFCRQMHFDQRPDYCHLRKLFRNLFHRLGFTYDYVFDWNLLKFGGPRNPQAIQQAQDGADGQAGHDAVAAAAAVAAAAAASSHQQQQHKVNAALGGGGGSRAQQQLQGGQTLAMLGGNGGGNGSQLIGGNGLNMDDSMAATNSSRPPYDTPERRPSIRMRQGGGGGGGGVGVGGMQSGGGGGGVGNAK	the formation of a PER/DBT complex leads to DBT-dependent phosphorylation of PER in vitro							
recombinant tau mutant hamster CK1ε (Arg178Cys) with N-terminal S•Tag and His-Tag fusions, captured on S-protein agarose (protein) MELRVGNKYRLGRKIGSGSFGDIYLGANIASGEEVAIKLECVKTKHPQLHIESKFYKMMQGGVGIPSIKWCGAEGDYNVMVMELLGPSLEDLFNFCSRKFSLKTVLLLADQMISRIEYIHSKNFIHRDVKPDNFLMGLGKKGNLVYIIDFGLAKKYRDARTHQHIPYRENKNLTGTACYASINTHLGIEQSRRDDLESLGYVLMYFNLGSLPWQGLKAATKRQKYERISEKKMSTPIEVLCKGYPSEFSTYLNFCRSLRFDDKPDYSYLRQLFRNLFHRQGFSYDYVFDWNMLKFGAARNPEDVDRERREHEREERMGQLRGSATRALPPGPPTGATANRLRSAAEPVASTPASRIQQAGNTSPRAISRADRERKVSMRLHRGAPANVSSSDLTGRQEVSRISASQTSVPFDHLGK		a Km of 29.8 µM	a Vmax of 52.5 µmoles/µg/5 minutes	the tau mutation causes an eight-fold reduction in the Vmax of CK1ε	there is a clear attenuation in phosphorylation of mPER1 and mPER2 by the tau mutant enzyme as compared to wild type CK1ε	there is a clear attenuation in phosphorylation of mPER1 and mPER2 by the tau mutant enzyme as compared to wild type CK1ε		
recombinant wild-type hamster CK1ε with N-terminal S•Tag and His-Tag fusions, captured on S-protein agarose (protein) MELRVGNKYRLGRKIGSGSFGDIYLGANIASGEEVAIKLECVKTKHPQLHIESKFYKMMQGGVGIPSIKWCGAEGDYNVMVMELLGPSLEDLFNFCSRKFSLKTVLLLADQMISRIEYIHSKNFIHRDVKPDNFLMGLGKKGNLVYIIDFGLAKKYRDARTHQHIPYRENKNLTGTARYASINTHLGIEQSRRDDLESLGYVLMYFNLGSLPWQGLKAATKRQKYERISEKKMSTPIEVLCKGYPSEFSTYLNFCRSLRFDDKPDYSYLRQLFRNLFHRQGFSYDYVFDWNMLKFGAARNPEDVDRERREHEREERMGQLRGSATRALPPGPPTGATANRLRSAAEPVASTPASRIQQAGNTSPRAISRADRERKVSMRLHRGAPANVSSSDLTGRQEVSRISASQTSVPFDHLGK		the Km is 55.6 µM	the Vmax is 400 µmoles/µg/5 minutes		this affinity kinase assay demonstrates that CK1ε phosphorylates mammalian PERIOD proteins	this affinity kinase assay demonstrates that CK1ε phosphorylates mammalian PERIOD proteins	The wild-type CK1ε kinase produces an 8-fold and 4-fold greater signal intensity, for phosvitin and α-casein respectively, relative to that produced by the tau enzyme.	The wild-type CK1ε kinase produces an 8-fold and 4-fold greater signal intensity, for phosvitin and α-casein respectively, relative to that produced by the tau enzyme.
